From the nanobody polyreactivity screen of Harvey et al. (2022)

Experiment: yeast display, Sf9 membrane polyspecificity reagent, FACS + sequencing; frameworks hold sequencing errors
Summary of the method: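 Genes from sorted yeast were amplified by colony PCR, read by MiSeq 2 × 250 sequencing and filtered on CDR length. These cells carried a synthetic nanobody library in Saccharomyces cerevisiae BJ5465 and were sorted by FACS into low and high (top ~1%) gates on anti-HA and streptavidin fluorescence. Polyreactivity is labelled according to the gate of origin.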

## QVQLVESGGGLVQAGGSLRLSCAASGRTFVGYAMGWYRQAPGKERELVAAISRTGGSTYYADSVKGRFTISRDNAKNTVYLQMNSLKPEDTAVYYCAASPKRVLRESGDYWGQGTQVTVSS
  polyreactivity (PSR sort gate): high polyreactivity

## QVQLVESRGGLVQAGGSLRLSCAASGSIFRGYAMGWYRQAPGKERELVAAIRRGVITNYADSVKGRFTISRDNAKNTVYLQMNSLKPEDTAVYYCYAVRRWRTSQFDYWGQGTLVTVSS
  polyreactivity (PSR sort gate): low polyreactivity

## QVQLQESGGGLVQAGGSLRLSCAASGTISQEDRMGWYRQAPGKEREFVAAIGLGSNTNYADSLKGRFTISRDNAKNTVYLQMNSLKPEDTAVYYCAVSVWQYSDHVYRGQGTQVTVSS
  polyreactivity (PSR sort gate): low polyreactivity

## QVQLVESGGGLVQAGGSLRLSCAASGRTFWDYGMGWYRQAPGKERELVPTISGNGGDTYYADSVKGRFTISRDNAKNTVYLQMNSLKPEDTAVYFCAADYRFYRTDRHYDYWGQGTQVTVSS
  polyreactivity (PSR sort gate): low polyreactivity

## QVQLVESGGGLVQAGGSLRLSCAASGSTFAPNTMGWYRQAPGKERELVAGITDGTITTYADSVKGRFTISRDNAKNTVYLQMNSLKPEDTAVYYCATRQSWYPRWMDYWGQGTQVTVSS
  polyreactivity (PSR sort gate): high polyreactivity

## QVQLVESGGGLVQAGGSLRLSCAAAGRSFGRNAMGWYRQAPGKERELVAAISTSSGSTYYADSVKGRFTISRDNAKNTVYLQMNSLKPEDTAGYYCAARDDSYRRYEYGYWGQGTQVTVSS
  polyreactivity (PSR sort gate): high polyreactivity

## QVQLVESGGGLVQAGGSLRLSCAASGRIFGTYAMGWYRQAPGKERELVAAITQSGGRTYYADSVKGRFTISRDNAKNTVYLQMNSLKPEDTAVYYCNKVTYRGIGLGYDYWGQGTQVTVSS
  polyreactivity (PSR sort gate): high polyreactivity

## QVQLVESGGGLVQAGGSLRLSCAASGRIFYFYAMGWYRQAPGKERELVAAISTSGGSTYYADSVKGRFTISRDNAKITVYLQMNSLKPEDTAVYYCAARFRYYGSEYDYWGQGTQVTVSS
  polyreactivity (PSR sort gate): low polyreactivity

## QVQLVESGGGLVQAGGSLRLSCAASGSISYRYVMGWYRQAPGKERELVAAITTSGGSTYYADSVKGRFTISRDNAKNTVYLQMNSLKPEDTAVYDCAAKHNVYRYSRYYWGQGTQVTVSS
  polyreactivity (PSR sort gate): high polyreactivity

## QVQLVESGGGLVQAGGSLRLSCAASGLIFGYYAMGWYRQAPGKEREFVAAIDGSDGTTYYADSVKGRFTISRDNAKNTVYLQMNSLKPEDTAVYFCNADSSSYSSDLGYDYWGQGTQVTVSS
  polyreactivity (PSR sort gate): low polyreactivity

## QVQLVESGGGLVQAGGSLRLSCAASGSTFDYNAMGWYRQAPGKERELVAAITTIGGSTYYADSVKGRFTISRDNAKNTVYLQMNSLKPEDTAVYYCAADLRVWGRSGYDYWGQGTQVTVSS
  polyreactivity (PSR sort gate): low polyreactivity

## QVQLLESCVGLVHAGGSLRLSCAASGFIFGTNAMGWSRQAPGKEREWVAAINGRGGGTYYADSVKGRFTISRDNAKNTVYLQMNSLKQEDTAVYYCAASRFDYWGQGTQVTVSS
  polyreactivity (PSR sort gate): low polyreactivity

## QVQLVESGGGLVQAGGSLRLSCAASGSIFRSNAMGWYRQAPGKERELVAAISWRGGRTYYADSVKGRFTISRDNAKNSVYLLMNSLKPEDTAVYYCATEVEPYAYGYWGQGTQVTVSS
  polyreactivity (PSR sort gate): high polyreactivity

## QVQLVESGGGLVQAGGSLRLSCAASGRLFKDNAMGGYRQAPGKERELVATIDSGGDTNYADSVKGRFTISRDNAKNTVYLQMNSLKPEDTAVYYCNTAGRGGIPSGFDYWGQGTQVTVSS
  polyreactivity (PSR sort gate): low polyreactivity

## QVQLVESGGGLVQAGGSLRLSCAASGFTFYIYAMGWYRQAPGKERELVASISARGGSTYYADSVKGRFTISRDNAKNTVYLQMNSLKPEDTAVYYCNALYNYAEIYGRGYWGQGTQVTVSS
  polyreactivity (PSR sort gate): high polyreactivity

## QVQLVESGGGLVQAGRSLRLSCAASGFIFWSNTKGWYRQAPGKERELVAAISYSGARTYYADSVKGRFTISRDNAKNTVYLLMNSLKPEDTAVYDCAAYLWGTHDRMDYWGQGTQVTVSS
  polyreactivity (PSR sort gate): high polyreactivity

## QVQLVESGGGFVQAGGSLRLSCAASGLTFVANAMGWYRQAPGTESEMVAGITQTGGSTYYADSVKGRFTISRDNAKNTVYLQMISLKPEDTAVYYCAATYRRLRYGKLYYYWGQGTQVTVSS
  polyreactivity (PSR sort gate): high polyreactivity

## QVQLVESGGGLVQAGGSLRLSCAASGSTFHRNSMGWYRQAPGKERELVASISIGGSTNYADSVKGRFTISRDNAKNTVYLQMNSLKPEDTAVYYCATEPNPRRPRVDYDYWGQGTQVTVSS
  polyreactivity (PSR sort gate): low polyreactivity

## QVHLVESGGGLVQAGGSLRLSCAASGSTFGYNAMGWYRQAPGKVWELVAVISYSGGSPYYADSVKGRFTLSRDNAKNTVSLQMNSLKPADTAVYYCAKRALTSTRYRVKYDSWGQGTQVTVAS
  polyreactivity (PSR sort gate): high polyreactivity

## QVQLVESGGGLVQAVGSLRLSCAASGFPFRRYALGCYRQAPGKERELDATISSSGASTYYADSVKGRFTISRDHAKNTVYFKMIRLKPVDTAVYYCAATKGSICKLYLYCLFDYWGQGTQVTVSS
  polyreactivity (PSR sort gate): high polyreactivity

## QVQLVESGGGLVQAGGSLRLSCAASGITFAGYAMGWYRQAPGKERELVAAISRGGSTYYADSVKGRFTISRDNAKNTVYLQMNSLKPEDTAVYYCNTDDQQGYFTYTGWNYNYWGQGTQVTVSS
  polyreactivity (PSR sort gate): high polyreactivity

## HVQLQESGGGLVQAGGSLRLSCAASGSISRNYDMGWYRQAPGKEREFVAGISGGAITYYADSVKGRFTISRDNAKNTVYLQMNSLKPEDTAVYYCAADTGVYQYHSYWGQGTQVTVSS
  polyreactivity (PSR sort gate): low polyreactivity

## HVQRVESAGGLVQAGGSLRLSCADSGLIFRGNAMGWYRQAPGKVRELVATISYSGGSTYYADSVKGRFTISRENAKNTVYLQMNSLKPEDTAVYYCNRDPDPWGFQPDWYYGSYDYWGQGTQVTVSS
  polyreactivity (PSR sort gate): low polyreactivity

## QVQLVESVGGLVQAGGSLRLSCAASGFTFYVYAMGWYRQAPGKERELVAAISRGGSTYYADSVKGRFTISRDNAKNTVYLQMNSLKPEDTAVYYCNRVPYVSSSKVRYSNGFDYWGQGTLVTVSS
  polyreactivity (PSR sort gate): low polyreactivity

## QVQLVESGGGLVQAGGSLRLSCAAYGRISYYYAMGWYRQAPGKERELVAAITYSTGSTYYADSVKGRFTISRDNAKNTVYLQMNSLKPEDSAVYYCAARYWRWLFPFDYWGQGTKVTVSS
  polyreactivity (PSR sort gate): high polyreactivity

## QVQLVESGGGLVQAGGSLRLSCAASGLTLQPYAMGWSRQAPRNERELVAAITSGGSTYYADSVKGRFTISRDNAKNTVYLQMNSLKPEDTAVYYCAATVSYDFGYVAVSYDYWGQGTQVTVSS
  polyreactivity (PSR sort gate): low polyreactivity

## QVQLVESGGGLVQAGGSLRLSCGASGFIFEGYSMGRYRQAPAKERELVAANTRGDSTNYADSVKGRFTISRDNAKNTVYLLMNSLKTEDTAVYYCAKTNLIGTDFTSPVQYYYWGQGTQVTVSS
  polyreactivity (PSR sort gate): low polyreactivity

## QVQLVESGGGLVQAGGSLRLICPASGSTFQYYAMGWYRQAPGKEREFVAAIRSSGGTTYYADSVKGRFTISRDNAKKTVYLQMNSLKPEDTAVYYCATVVNYPSARYCYWGQGTKVTVSS
  polyreactivity (PSR sort gate): high polyreactivity

## QVQLVESGGGLVQAAGSLRLSCAASGSIFYNYAMGWYRQAPGKERELVAAITSGGITYYADSVKGRFTISRDNAKNTVYLQMNSLKPEYTAVYYCAAESLTGYGHYDYWGQGTQVTVSS
  polyreactivity (PSR sort gate): low polyreactivity

## QVQLVESGGGLLQAGGSLRLSCAASGSIFSYYVMGWYRQAPGKERELVAAISSSGGSTYYADSVKGRFTISRDNEKNTVYLQMNSLKPEDTAVYYCAAQHYVRSSIPGFIYYYWGQGTQVTVSS
  polyreactivity (PSR sort gate): high polyreactivity

## QVQLVESGGCLVQAGGSLRLSCAASGSTIPLYAMGWYIQAPGKERELVAAITSGGGNTYYADSVKGRYTISRDNAKNTVYLQKTSLKPDDTAVYYCAAVVGYKSYYSYEYDYWGQGTQVNVSS
  polyreactivity (PSR sort gate): low polyreactivity
